The text below walks through data of PMC6761861 (Chemical Science, 2019).

Read-outs that look alike come from different tables or passages of the source. No end group written: not given here.

One assay concerns the target TMD5 (coumarin-labelled) (Epstein-Barr virus, UniProt P03230). In words: FRET assay. It is filed as binding.
Assay [1] relates to NF-κB activity (LMP-1) in EBV positive B721 cells. The following applies: read-out: IC50, inhibition of B721 cell NF-κB activity; cited from earlier work.
Assay [2] deals with TMD5/TMD5 interaction (TMD5–ToxR). The assay is described as follows: Dominant-negative ToxR assay in bacterial membranes. It is filed as cell-based, Epstein–Barr virus. The following applies: co-expressed as ToxR* fusion with TMD5–ToxR in E. coli FHK12; result in words.
Assay [3] addresses coumarin-labelled LMP-1 transmembrane domain 5 (TMD5) peptide (Epstein-Barr virus). The assay is described as follows: FRET or BRET. Background: In BRET a luciferase serves as donor, and the signal depends on an acceptor being close.
For assay [4] the target is unchanged. In words: FRET or BRET. The source holds these as a separate data set.
For assay [5] the target is unchanged. In words: other fluorescence titration.

A word on the Kd: it is the concentration at which binding is half-saturated. The low end stands for a tighter complex, the high end for a looser complex. For “KKKKWWKLWYFLVWFLDLIILILLLWWKKKK [anti-TMD5]”, binding at TMD5 (coumarin-labelled) was characterised by a dissociation constant (Kd) of 40 ± 6.7 nM.
What is called IC50 is the midpoint of a concentration-inhibition curve. As to `N=C(N)c1ccc(C=Cc2ccc(C(=N)N)cc2O)cc1` [NSC259242], the IC50 in assay [1] is 29.6 ± 6.6 µM.
On to “KKKK-VFLWLWLIWIFIDWKLWLLYWLL-KKKK [anti-TMD5 scramble]”, for which the “quenching of TMD5-coumarin fluorescence and FRET signal compared to anti-TMD5” value at TMD5 (coumarin-labelled) (1.0 mM C14 betaine micelles, 20 mM HEPES, pH 7.4, result in words) is “much less quenching of TMD5-coumarin fluorescence and weaker FRET signal from FITC emission”. The “effect on TMD5 Miller unit” value in assay [2] is “did not inhibit the TMD5 Miller unit”.

B1: FITC-tagged anti-TMD5 peptide (designed binder)
peptide: WWKLWYFLVWFLDLIILILLLWW
modifications: also: FITC label, position not given here
For orientation: stoichiometry N means the number of molecules, sites or subunits per partner or assembly. Turning to B1, in assay [3], the dissociation constant (Kd) worked out at 40 µM and the stoichiometry N is 0.44. In assay [4], this molecule showed a Kd of 67.8 nM and a stoichiometry N of 0.53.

B2: anti-TMD5 peptide (unlabelled) (designed binder)
peptide: WWKLWYFLVWFLDLIILILLLWW
By EC50 is commonly meant the midpoint of the concentration-response curve. Read a low EC50 as greater potency. For B2, the half-maximal effective concentration (EC50) in assay [5] worked out at 3.3 µM.
